The record followed here is patent US20210002356A1 (ZHUHAI TRINOMAB BIOTECHNOLOGY, published 2021).

This experiment addresses tetanus toxin (Clostridium tetani, UniProt P04958 2-1315).

Sequence of tetanus toxin (P04958 2-457 limits assumed, chain 1 of 2): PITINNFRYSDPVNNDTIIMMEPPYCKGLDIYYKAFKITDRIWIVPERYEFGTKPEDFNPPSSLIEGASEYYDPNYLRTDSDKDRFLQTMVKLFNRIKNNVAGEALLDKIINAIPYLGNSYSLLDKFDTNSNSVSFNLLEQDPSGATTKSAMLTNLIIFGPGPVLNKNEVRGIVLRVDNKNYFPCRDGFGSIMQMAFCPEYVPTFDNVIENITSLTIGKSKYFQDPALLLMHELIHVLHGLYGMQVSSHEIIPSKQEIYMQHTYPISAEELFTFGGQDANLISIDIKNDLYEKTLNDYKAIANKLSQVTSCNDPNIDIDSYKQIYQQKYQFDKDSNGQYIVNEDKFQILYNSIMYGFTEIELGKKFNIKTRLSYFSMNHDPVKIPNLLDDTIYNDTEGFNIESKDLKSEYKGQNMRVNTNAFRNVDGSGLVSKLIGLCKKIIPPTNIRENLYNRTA
Sequence of tetanus toxin (P04958 458-1315 limits assumed, chain 2 of 2): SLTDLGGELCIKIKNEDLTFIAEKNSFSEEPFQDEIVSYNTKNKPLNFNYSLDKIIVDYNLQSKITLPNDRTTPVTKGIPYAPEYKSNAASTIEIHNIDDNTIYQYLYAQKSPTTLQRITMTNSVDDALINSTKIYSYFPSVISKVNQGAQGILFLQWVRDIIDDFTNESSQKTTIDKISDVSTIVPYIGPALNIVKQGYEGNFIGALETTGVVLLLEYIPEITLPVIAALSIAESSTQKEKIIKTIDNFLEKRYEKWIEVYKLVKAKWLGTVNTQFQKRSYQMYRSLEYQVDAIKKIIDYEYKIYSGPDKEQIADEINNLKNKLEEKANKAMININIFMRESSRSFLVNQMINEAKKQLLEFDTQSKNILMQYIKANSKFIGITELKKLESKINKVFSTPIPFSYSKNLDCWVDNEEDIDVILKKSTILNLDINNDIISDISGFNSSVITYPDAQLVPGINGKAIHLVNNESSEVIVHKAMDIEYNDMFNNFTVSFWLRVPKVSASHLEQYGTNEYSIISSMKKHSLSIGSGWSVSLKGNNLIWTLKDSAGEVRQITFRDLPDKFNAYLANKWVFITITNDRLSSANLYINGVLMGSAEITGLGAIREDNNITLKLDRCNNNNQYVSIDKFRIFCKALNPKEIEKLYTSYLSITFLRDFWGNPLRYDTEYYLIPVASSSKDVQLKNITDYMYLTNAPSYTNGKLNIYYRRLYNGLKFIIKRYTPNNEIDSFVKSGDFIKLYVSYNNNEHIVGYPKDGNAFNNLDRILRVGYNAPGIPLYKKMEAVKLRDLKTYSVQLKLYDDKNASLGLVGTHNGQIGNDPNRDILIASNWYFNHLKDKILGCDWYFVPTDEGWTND

B1: TRN0010 antibody (antibody, V domains shown)
VH: QVQLQESGPGLVKPSETLSLRCTVSGGSISSYYWSWFRQPPGKGLEWIGYVHYSGSTNYNPSLKSRFTLSVDTSKSQFSLRLRSVTAADTAIYYCARDKYQTDVSDIWGQGTVVTVSS
VL: DIQMTQSPGTLSLSPGERATLSCRASQSITSSFLAWYQQKPGQAPRLLIYGASSRATGIPDRFSGSGSGTDFILTISRLEPEDFAVYYCQQYDTSRTFGQGTTVEIK
Regarding B1, the Kd worked out at 3.68 nM, the koff was 0.000153 s⁻¹ and the kon is 41500 M⁻¹ s⁻¹.

B2: TRN0012 antibody (antibody, V domains shown)
VH: EVQLVQSGAEVKKPGESLRISCQGSGYTFTNYWIGWVRQMPGKGLEWMGIVYPGDSDTRYSPSFQGQITISADKSISTAYLQWNNLKASDTGMYYCATQQSNPYDSGSYWYFDSWGQGTLVTVSS
VL: DIVMTQSPPSLSASIGDRVTITCRASQGIRNFLAWYQQKPGKVPKLLIYAASTLQSGVPSRFSGSGSGTDFTLTISSLQPEDVATYYCQKYFSAPPDFGQGTRLEIK
B2: the Kd was 4.07 nM, the koff worked out at 0.000328 s⁻¹ and the kon was 80600 M⁻¹ s⁻¹.
